Data set [1] deals with T1, EfCodY (Enterococcus faecalis) (UniProt Q834K5).
T1 sequence: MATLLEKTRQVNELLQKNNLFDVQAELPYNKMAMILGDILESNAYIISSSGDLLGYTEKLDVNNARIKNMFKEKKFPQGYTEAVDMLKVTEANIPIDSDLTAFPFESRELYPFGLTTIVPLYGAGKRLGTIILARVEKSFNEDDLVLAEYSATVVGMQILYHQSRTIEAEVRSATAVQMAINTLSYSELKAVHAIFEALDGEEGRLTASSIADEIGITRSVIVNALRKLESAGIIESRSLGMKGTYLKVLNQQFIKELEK
Description: BLI. The following applies: BLI: 20 mM Tris-HCl pH 8, 150 mM NaCl, 2 mM MgCl2, 0.1% NP-40, 25 C, 2 mM GTP and/or 10 mM Ile/Leu/Val as stated.

Data set [2] concerns the target Staphylococcus aureus CodY (SaCodY), full length (Staphylococcus aureus) (UniProt Q2FHI3). Description: SEC-MALS; Superdex 75 10/300, 0.4 ml/min; 200 ul of 35 uM CodY, ligand-free, 20 mM Tris-HCl pH 8, 200 mM NaCl.

26-nt overlapping sites: in data set [1], the dissociation constant (Kd) – broadly, the constant that tells how readily two partners part at equilibrium – was found to be 710 nM. single 15-nt consensus site had a Kd in data set [1] (10 mM Leu (implied), values printed as pair, assigned by order) of 706 nM. For the substance “Staphylococcus aureus CodY (SaCodY), full length (from UniProt Q2FHI3 1-257) (natural protein)”, the stoichiometry N (as a rule, a count of units in the complex or per binding partner) in data set [2] came out at 2.
